# According to patent publication US20250186614A1, “COMPACT DRUG RESPONSIVE DOMAINS FOR REGULATION OF FUNCTION/ABUNDANCE AND DELIVERY OF POLYPEPTIDE PAYLOADS” (OBSIDIAN THERAPEUTICS, INC., priority 2022, published 2025):
# Test system: Jurkat cells
# Test: Tacrolimus dose response of FKBP13-AcGFP-mCherry constructs stably transduced into Jurkat cells, GFP MFI by flow cytometry
# Format: cell-based
# Design: Basal: unit not given here
# Settings: for DRD function after abrogating the disulfide bonds: FIG. 4; for basal AcGFP expression: absence of tacrolimus
# Method: The regulation of AcGFP, from FKBP13-AcGFP-mCherry constructs, in Jurkat cells, was also studied. Jurkat Clone E6-1 cells were cultured in standard media (RPMI+GlutaMAX Supplement (Life Technologies, Carlsbad, CA Cat #61870127), Fetal Bovine Serum (FBS) (Life Technologies Cat #10-082-147)). Jurkat cells were transduced with lentivirus produced with each of FKBP-039, FKBP-040, FKBP-041, FKBP-042, FKBP-043, FKBP-044, or FKBP-045 constructs. Jurkat cells were transduced until they were 10-25% positive, as determined on day 5 post-transduction, by using mCherry as a transduction marker. […] The Geometric Mean Fluorescent Intensity (MFI) of GFP expression in mCherry+ cells was plotted and dose response curve fits were performed using Prism Software (San Diego, CA).
# FKBP-091 was used as a comparative construct.
# FIGS. 22-38 show the results of characterization of FKBP-160-292. […] FKBP-091 and FKBP-117 was used as a comparative control for FKBP-160-FKBP-255. FKBP-195 was used as a comparative control for FKBP-256-FKBP-275. FKBP-117, FPBP-195 and FKBP-251 were used as a comparative control for FKBP-276-FKBP-292.
# FKBP mutants were cloned in a manner to make a fusion protein with AcGFP in order to assess FKBP mutant regulation by using AcGFP expression as a readout. […] Further iterative FKBP mutants (FKBP-256-FKBP-292) were constructed from these initial combinatorial mutants to see if we could further improve FKBP DRD properties.
# [1] = tacrolimus dose response, Jurkat cells stably transduced (FIG. 4), Table 4
# [2] = tacrolimus, Jurkat cells, Table 13
molecule,measurement,setting,value
"FKBP-062: FKBP13 DRD Q72R, Q84E, A117H, M54A, [−]disulfide; SEQ ID NO: 18 (protein, disulfide removed; Description of sequence: FKBP13-AcGFP-mCherry Fusion; Construct Name: FKBP-062; FKBP13 DRD in Construct : FKBP13 (mutated to match FKBP12 active site - Q72R Q84E A117H) (DRD - M54A [-]disulfide)) HSPIKSRKGDVLHAHYTGKLEDGTEFDSSLPRNQPFVFSLGTGEVIKGWDQGLLGMSEGEKRKLVIPSELGYGERGHPPKIPGGATLVFEVELLKIER",DRD function after abrogating the disulfide bonds,tacrolimus dose response,did not create a significant difference in DRD function
same,Fold Change,[1],10.4
"FKBP-063: FKBP13 DRD Q72R, Q84E, A117H, M54A, C42S; SEQ ID NO: 19 (protein, Description of sequence: FKBP13-AcGFP-mCherry Fusion; Construct Name: FKBP-063; FKBP13 DRD in Construct : FKBP13 (mutated to match FKBP12 active site - Q72R Q84E A117H) (DRD - M54A C42S )) HSPIKSRKGDVLHAHYTGKLEDGTEFDSSLPRNQPFVFSLGTGEVIKGWDQGLLGMCEGEKRKLVIPSELGYGERGHPPKIPGGATLVFEVELLKIER",DRD function after abrogating the disulfide bonds,tacrolimus dose response,did not create a significant difference in DRD function
same,Fold Change,[1],7.3
"FKBP-272: constructed from FKBP-195 by changing the K135Y mutation to K135L (protein, Description of sequence: Construct Name: FKBP-272; Mutation(s): Q72R Q84E A117W V85R DRD K135L, constructed from FKBP-195 by changing the K135Y mutation to K135L) HCPIKSRKGDVLHMHYTGKLEDGTEFDSSLPRNQPFVFSLGTGERIKGWDQGLLGMCEGEKRKLVIPSELGYGERGWPPKIPGGATLVFEVELLLIER",Basal,FIG. 39,71.5
same,FC,FIG. 39,85
same,Peak,FIG. 39,5857
same,Basal,FIG. 50,55.6
same,FC,FIG. 50,105.86
same,At 10 uM,FIG. 50,5886
same,basal AcGFP expression,,lower basal AcGFP expression
same,Fold Change,[2],105.86
"FKBP-263: based on FKBP-215 removing the M54A mutation (protein, Description of sequence: Construct Name: FKBP-263; Mutation(s): Q72R Q84G A117W V85R DRD P43R K135Y, based on FKBP-215 removing the M54A mutation) HCRIKSRKGDVLHMHYTGKLEDGTEFDSSLPRNQPFVFSLGTGGRIKGWDQGLLGMCEGEKRKLVIPSELGYGERGWPPKIPGGATLVFEVELLYIER",Basal,"FIG. 49, BR1 (Biorep 1)",56
same,FC,"FIG. 49, BR1 (Biorep 1)",49.02
same,At 10 uM,"FIG. 49, BR1 (Biorep 1)",2745
same,Basal,"FIG. 49, BR2 (Biorep 2)",63.3
same,FC,"FIG. 49, BR2 (Biorep 2)",45.75
same,At 10 uM,"FIG. 49, BR2 (Biorep 2)",2896
same,basal AcGFP expression,,retained the low basal AcGFP expression
same,FC,"tacrolimus, FIGS. 31 and 32",56
same,Fold Change,[2],56
"FKBP-053: FKBP13 DRD Q72R, Q84E, A117H, D90G, F66H; SEQ ID NO: 9 (protein, Description of sequence: FKBP13-AcGFP-mCherry Fusion; Construct Name: FKBP-053; FKBP13 DRD in Construct : FKBP13 (mutated to match FKBP12 active site - Q72R Q84E A117H) (DRD - D90G F66H)) HCPIKSRKGDVLHMHYTGKLEDGTEHDSSLPRNQPFVFSLGTGEVIKGWGQGLLGMCEGEKRKLVIPSELGYGERGHPPKIPGGATLVFEVELLKIER",Fold Change,[1],1.0
"FKBP-054: FKBP13 DRD Q72R, Q84E, A117H, D90G, L127K; SEQ ID NO: 10 (protein, Description of sequence: FKBP13-AcGFP-mCherry Fusion; Construct Name: FKBP-054; FKBP13 DRD in Construct : FKBP13 (mutated to match FKBP12 active site - Q72R Q84E A117H) (DRD - D90G L127K)) HCPIKSRKGDVLHMHYTGKLEDGTEFDSSLPRNQPFVFSLGTGEVIKGWGQGLLGMCEGEKRKLVIPSELGYGERGHPPKIPGGATKVFEVELLKIER",Fold Change,[1],0.9
"FKBP-055: FKBP13 DRD Q72R, Q84E, A117H, F78V; SEQ ID NO: 11 (protein, Description of sequence: FKBP13-AcGFP-mCherry Fusion; Construct Name: FKBP-055; FKBP13 DRD in Construct : FKBP13 mutated to match FKBP12 active site - (Q72R Q84E A117H) (DRD - F78V)) HCPIKSRKGDVLHMHYTGKLEDGTEFDSSLPRNQPFVVSLGTGEVIKGWDQGLLGMCEGEKRKLVIPSELGYGERGHPPKIPGGATLVFEVELLKIER",Fold Change,[1],9.0
"FKBP-056: FKBP13 DRD Q72R, Q84E, A117H, F129K; SEQ ID NO: 12 (protein, Description of sequence: FKBP13-AcGFP-mCherry Fusion; Construct Name: FKBP-056; FKBP13 DRD in Construct : FKBP13 (mutated to match FKBP12 active site - Q72R Q84E A117H) (DRD - F129K)) HCPIKSRKGDVLHMHYTGKLEDGTEFDSSLPRNQPFVFSLGTGEVIKGWDQGLLGMCEGEKRKLVIPSELGYGERGHPPKIPGGATLVKEVELLKIER",Fold Change,[1],1.0
"FKBP-057: FKBP13 DRD Q72R, Q84E, A117H, I106A; SEQ ID NO: 13 (protein, Description of sequence: FKBP13-AcGFP-mCherry Fusion; Construct Name: FKBP-057; FKBP13 DRD in Construct : FKBP13 (mutated to match FKBP12 active site - Q72R Q84E A117H) (DRD - I106A)) HCPIKSRKGDVLHMHYTGKLEDGTEFDSSLPRNQPFVFSLGTGEVIKGWDQGLLGMCEGEKRKLVAPSELGYGERGHPPKIPGGATLVFEVELLKIER",Fold Change,[1],2.7
"FKBP-058: FKBP13 DRD Q72R, Q84E, A117H, L52A; SEQ ID NO: 14 (protein, Description of sequence: FKBP13-AcGFP-mCherry Fusion; Construct Name: FKBP-058; FKBP13 DRD in Construct : FKBP13 (mutated to match FKBP12 active site - Q72R Q84E A117H) (DRD - L52A)) HCPIKSRKGDVAHMHYTGKLEDGTEFDSSLPRNQPFVFSLGTGEVIKGWDQGLLGMCEGEKRKLVIPSELGYGERGHPPKIPGGATLVFEVELLKIER",Fold Change,[1],8.1
"FKBP-059: FKBP13 DRD Q72R, Q84E, A117H, L93A; SEQ ID NO: 15 (protein, Description of sequence: FKBP13-AcGFP-mCherry Fusion; Construct Name: FKBP-059; FKBP13 DRD in Construct : FKBP13 (mutated to match FKBP12 active site - Q72R Q84E A117H) (DRD - L93A)) HCPIKSRKGDVLHMHYTGKLEDGTEFDSSLPRNQPFVFSLGTGEVIKGWDQGALGMCEGEKRKLVIPSELGYGERGHPPKIPGGATLVFEVELLKIER",Fold Change,[1],27.3
same,Fold Change,"tacrolimus dose response, Jurkat cells stably transduced (FIG. 10), Table 5",31.085
"FKBP-060: FKBP13 DRD Q72R, Q84E, A117H, L104A; SEQ ID NO: 16 (protein, Description of sequence: FKBP13-AcGFP-mCherry Fusion; Construct Name: FKBP-060; FKBP13 DRD in Construct : FKBP13 (mutated to match FKBP12 active site - Q72R Q84E A117H) (DRD - L104A)) HCPIKSRKGDVLHMHYTGKLEDGTEFDSSLPRNQPFVFSLGTGEVIKGWDQGLLGMCEGEKRKAVIPSELGYGERGHPPKIPGGATLVFEVELLKIER",Fold Change,[1],2.7
"FKBP-061: FKBP13 DRD Q72R, Q84E, A117H, L133A; SEQ ID NO: 17 (protein, Description of sequence: FKBP13-AcGFP-mCherry Fusion; Construct Name: FKBP-061; FKBP13 DRD in Construct : FKBP13 (mutated to match FKBP12 active site - Q72R Q84E A117H) (DRD - L133A)) HCPIKSRKGDVLHMHYTGKLEDGTEFDSSLPRNQPFVFSLGTGEVIKGWDQGLLGMCEGEKRKLVIPSELGYGERGHPPKIPGGATLVFEVEALKIER",Fold Change,[1],16.6
